The text below walks through data of US20140275490A1.

Test [1] has as its target human IL-23R-mouse Fc fusion protein (human; mouse) (UniProt Q5VWK5). Put plainly: antigen ELISA, human IL-23R-Fc immobilized, HRP anti-human IgG, chemiluminescence. A general note: An ELISA detects its analyte on a solid surface through an enzyme-linked reagent.
Test [2] addresses monkey IL-23R-mouse Fc fusion protein (monkey; mouse). Put plainly: antigen ELISA, monkey IL-23R-Fc immobilized, HRP anti-human IgG, chemiluminescence.
For a further test, the target named is human IL-23R (human) (UniProt Q5VWK5). Put plainly: cell-based or functional assay.

What is called EC50 is the midpoint of the concentration-response curve.

Chain of human IL-23R (human) (Q5VWK5 24-629 L310P limits assumed): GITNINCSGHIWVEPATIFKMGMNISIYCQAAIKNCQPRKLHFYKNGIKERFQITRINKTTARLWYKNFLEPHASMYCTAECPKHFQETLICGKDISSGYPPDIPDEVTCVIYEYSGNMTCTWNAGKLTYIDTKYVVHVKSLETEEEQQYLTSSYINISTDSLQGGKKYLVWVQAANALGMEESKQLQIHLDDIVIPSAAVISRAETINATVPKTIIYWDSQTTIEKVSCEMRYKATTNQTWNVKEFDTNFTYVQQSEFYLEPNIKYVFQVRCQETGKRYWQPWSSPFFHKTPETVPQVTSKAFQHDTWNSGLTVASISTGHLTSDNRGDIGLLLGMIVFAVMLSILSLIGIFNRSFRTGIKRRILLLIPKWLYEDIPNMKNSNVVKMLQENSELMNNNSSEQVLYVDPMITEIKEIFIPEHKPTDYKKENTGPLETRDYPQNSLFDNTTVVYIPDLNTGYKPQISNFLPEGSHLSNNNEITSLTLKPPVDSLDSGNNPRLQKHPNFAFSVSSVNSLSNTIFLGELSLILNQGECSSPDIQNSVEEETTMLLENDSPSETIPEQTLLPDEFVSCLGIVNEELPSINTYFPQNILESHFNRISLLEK
Chain of human IL-23R-mouse Fc fusion protein (human; mouse) (Q5VWK5 24-353 L310P): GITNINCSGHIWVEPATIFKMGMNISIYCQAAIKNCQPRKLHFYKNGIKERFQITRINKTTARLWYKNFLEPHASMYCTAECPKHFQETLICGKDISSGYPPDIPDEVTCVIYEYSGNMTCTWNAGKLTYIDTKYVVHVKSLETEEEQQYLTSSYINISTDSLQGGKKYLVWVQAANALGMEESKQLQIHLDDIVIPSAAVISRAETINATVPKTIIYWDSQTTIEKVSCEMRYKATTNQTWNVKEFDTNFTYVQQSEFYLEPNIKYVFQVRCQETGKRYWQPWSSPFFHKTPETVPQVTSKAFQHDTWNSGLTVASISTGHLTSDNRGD

B1: hum20D7 (antibody, from another filing, V domains shown)
VH: QVQLVQSGAEVKKPGASVKVSCKASGYTFTNYAMNWVRQAPGQGLEWMGWINTYTGEPTYSDDFKGRVTFTLDTSTSTAYMELRSLRSDDTAVYYCARGGGYDEDYFDYWGQGTLVTVSS
VL: DIVMTQSPLSLPVTPGEPASISCKSSQSLFNTINQKTYLAWYLQKPGQSPQLLIYFASTRESGVPDRFSGSGSGTDFTLKISRVEAEDVGVYYCQQHYDTPWTFGQGTKVEIKR
B1: the values for the EC50 in test [1] and in test [2] were 0.0485 µg/mL and over 10 µg/mL, respectively. In addition, the IC50, IL-23-stimulated STAT3 phosphorylation in CD4 lymphocytes of human whole blood in the test with human IL-23R (human) was 0.01 µg/mL. Moreover, the IC50, inhibition of human IL-23-inducible Kit-225 cell proliferation in the test with human IL-23R (human) amounted to 0.055 µg/mL.
